Literature values in paper PMC4760235.

Target: CD161 (Homo sapiens) (UniProt Q12918)
Chain of UniProt Q12918 (Q12918 whole entry): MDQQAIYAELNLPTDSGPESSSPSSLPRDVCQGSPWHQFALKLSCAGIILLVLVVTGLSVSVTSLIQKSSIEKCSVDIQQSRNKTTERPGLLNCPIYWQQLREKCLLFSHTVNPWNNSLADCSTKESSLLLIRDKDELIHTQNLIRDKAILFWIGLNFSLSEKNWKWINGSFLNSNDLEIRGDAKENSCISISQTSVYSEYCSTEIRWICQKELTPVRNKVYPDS

Kd: 48 µM
Substance: LLT1 (from UniProt Q9UHP7)
